For experiment [1], the target named is prefusion RSVF (preRSVF), prefusion-stabilized respiratory syncytial virus fusion protein (respiratory syncytial virus) (UniProt P03420).
For the next experiment, the target named is T1, S0_2.126 (synthetic construct (de novo design)).
T1 chain: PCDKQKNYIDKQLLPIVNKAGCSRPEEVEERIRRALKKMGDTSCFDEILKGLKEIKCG
Nature of the experiment: SPR.

Sequence of prefusion RSVF (preRSVF), prefusion-stabilized respiratory syncytial virus fusion protein (respiratory syncytial virus) (P03420 135-513): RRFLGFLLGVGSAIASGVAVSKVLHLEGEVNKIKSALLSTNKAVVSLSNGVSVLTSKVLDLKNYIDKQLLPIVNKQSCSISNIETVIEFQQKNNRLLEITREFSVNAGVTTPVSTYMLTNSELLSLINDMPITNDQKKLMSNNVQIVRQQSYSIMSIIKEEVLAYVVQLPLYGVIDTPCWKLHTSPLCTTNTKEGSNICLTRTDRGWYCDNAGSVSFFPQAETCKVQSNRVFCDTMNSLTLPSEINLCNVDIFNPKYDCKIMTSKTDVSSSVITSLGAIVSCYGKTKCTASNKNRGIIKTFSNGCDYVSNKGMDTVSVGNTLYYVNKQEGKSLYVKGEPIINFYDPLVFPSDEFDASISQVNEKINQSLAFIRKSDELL

In turn, D25 antibody displayed a dissociation constant (Kd) in experiment [1] of 0.15 nM.

B1: D25 antibody (antibody, V domains shown)
VH: QVQLVQSGAEVKKPGSSVMVSCQASGGPLRNYIINWLRQAPGQGPEWMGGIIPVLGTVHYAPKFQGRVTITADESTDTAYIHLISLRSEDTAMYYCATETALVVSTTYLPHYFDNWGQGTLVTVSS
VL: DIQMTQSPSSLSAAVGDRVTITCQASQDIVNYLNWYQQKPGKAPKLLIYVASNLETGVPSRFSGSGSGTDFSLTISSLQPEDVATYYCQQYDNLPLTFGGGTKVEIK
Regarding B1, the dissociation constant Kd with S0_2.126 was about 0.05 nM.

These data come from paper PMC7391827 (Science (New York, N.Y.), 2020).
